B1: MPV464 (antibody, V domains shown)
VH: QVQLQESGPGLVKPSQTLSLTCTVSGGSVRGGGDYWSWIRRPPGKGLEWIGHIYNSGTTFYNPSLKSRVTISIDTSKNQFSLKLRSVTAADTAVYYCGRVGSRATGLPDWIDPWGQGTLVTVSS
VL: SYELTQPPSVSVSPGQTATITCSGTNLGAKYSCWYQQKPGQSPVLVIFQDNKRASGIPARFSASTSGDTATLTISGTQVMDEADYFCQAWDSRTAVFGGGTTLTV
B2: MPV491 (antibody, V domains shown)
VH: QVQLQESGPGLVKSSQTLSLTCTVSGGSISSVTSHWTWIRQHPGKGLEWIGYIFSSGTTYYSPSLRSRLTMSVDTSKNQFSLQLSSVTAADTAMYYCARGIYCGDSCYKGTDYWGRGTLVTVSS
VL: IRLMTQTPVTLPVTPGEPASISCRSSQSLLHSNGYNYLDWYLQKPGQSPQLLIYRGSTRASGVPDRFSGSGSGTEFTLKISRVEAEDVGVYYCMQGLQTPYTFGQGTKLESR
B3: MPV486 (antibody, V domains shown)
VH: QVQLVESGGHLVQSGGSLRLSCAASGFTFSNYILNWVRQAPGKGLEWISYITGGSSAIYYADSVKGRFTISRDDAKNSLYLQMNNLRAEDTAVYYCARSHGYDSSGYYYYFAMDVWGQGTTVTVSS
VL: QSVLTQPPSASGTPGQRVTISCSGSNSNIESNTVNWYQQIPGTAPKLLIYSDNRRPSGVPDRFSGSKSGTSASLAISGLQSEDEADYYCAAWDDSLIGYVFGTGTKVTV
B4: MPV481 (antibody, V domains shown)
VH: QVQLVQSGGGLVKPGGSLRLSCAASGLPFNNAWMNWVRQAPGKGLEWVGRIKSKIDGGTTEYAAPVKGRFTISRDDSENTLYLQMNSLRTEDTAVYYCTTEYYALLSGNYSDCWGQGTLVTVSS
VL: IRLMTQSPFSLSLSPGERATLSCRASQSIKRAYLGWYQQKPGQAPRLLIYGASNRATGIPDRFSGSGSGTDFTLTISRLEPEDFAVYYCQQYGDSPGGSFGQGTKLEIR
B5: MPV454 (antibody, V domains shown)
VH: QVQLVESGGGLVKPGGSLRLSCSTSGFVFSSYAMHWVRQAPGKGLEHVSAISSTGDNTHYADSVKGRFTISRDNSRGRLYLQMTSVRPEDAALYYCVKDLYSGRFYYFLDDWGQGTRIIVSS
VL: DIQVTQSPSSLSASVGDRVTISCRASQNISNYLNWFQQRPGKAPKLLIYVASTLQSGAPSRFSGSGSGTDFTLTITDLQPEDFATYYCQQSYNTPPITFGQGTRLEIK
B6: MPV485 (antibody, V domains shown)
V domain 1: QVQLQEPGPGLVKPSETLSLTCTVSGGSISSTNSFWGWVRQPPGKGLEWIGSIYYSGTTYYNSSLKSRVTISVDTSKNQFSLRLSSVTAADTAVYYCARQGLTSSWYDGSGLDVWG
V domain 2: SYELTQPPSVSVSPGQTASITCSGDKLGNKYACWYQQRPGQSPVLVIYQDTKRPSGIPERFSGSNSGNTATLTISGTQAMDEADYYCQAWDSNTVVFGGGTKLTVL
B7: MPV482 (antibody, V domains shown)
VH: QVQLVQSGGGVVQPGRSLRLSCAASGFTFSSFAMHWVRQAPGKGLEWVALISDDGNNKYHADSVKGRFTISRDSSKNTLYLQMNSLRGEDTAVYYCARDGSVVGAAAHCDHWGQGTLVTVSS
VL: SYELTQPPSVSVSPGQTARITCSGDALPNQCAYWYQQKPGLAPVLLIYKDKERPSGIPERFSGSISGTTVTLTISGVQAEDEADYYCQSSDSSSTVVFGGGTKLTVL

The first assay has as its target hMPV A1 F trimer (heated), postfusion hMPV F (human metapneumovirus subgroup A1; …, UniProt H6X1Z1, strain).
Consider B1, for which the binding result is reported as “binds”.

For the molecule B2, the binding result is “binds”.

Turning to B3, the binding result is on record as “binds”.

With B4, the binding result is given as “binds”.

As for B5, the binding result was “binds”.

Consider B6, for which the binding result was “binds”.

B7: the binding result is “binds”.

The next assay addresses hMPV A1 F monomer (trypsinized monomeric prefusion hMPV F) (human metapneumovirus subgroup A1; …, UniProt H6X1Z1, strain).
B1: the binding result is “binds”.

On to B2, for which the binding result was “binds”.

B3: the binding result is “binds”.

Regarding B4, the binding result was “binds”.

Turning to B5, the binding result is “binds”.

For the molecule B6, the binding result was “binds”.

Take B7: the binding result is “binds”.

The values above are taken from publication PMC9231621 (Proceedings of the National Academy of Sciences of the …, 2022).
